Measurements as given in US20140348865A1, “[…] ON AN HIV-1 V1V2 SITE-OF-VULNERABILITY” (The United States of America, as represented by the …, priority 2011, published 2014).

Legend:
[1] = target: 89.6.DG
[2] = target: AC10.29
[3] = target: ADA.DG
[4] = target: BL01.DG
[5] = target: BR07.DG
[6] = target: BX08_16
[7] = target: BaL.26
[8] = target: Bal.01
[9] = target: CAAN.A2
[10] = target: CNE10
[11] = target: CNE12
[12] = target: CNE14
[13] = target: DJ263.8
[14] = target: Env of HIV-1 strain 7165.18 (pseudovirus) (HIV-1)
[15] = target: Env of HIV-1 strain BG 1168 (pseudovirus) (HIV-1)
[16] = target: Env of HIV-1 strain CNE4 (pseudovirus) (HIV-1)
[17] = target: Env of HIV-1 strain JRFL (pseudovirus) (HIV-1)
[18] = target: Env of HIV-1 strain QH0515 (pseudovirus) (HIV-1)
[19] = target: Env of HIV-1 strain RHPA (pseudovirus) (HIV-1)
[20] = target: Env of HIV-1 strain T251-18 (pseudovirus) (HIV-1)
[21] = target: HO86.8
[22] = target: HT593.1
[23] = target: HXB2.DG
[24] = target: JR-CSF
[25] = target: MN.3
[26] = target: PVO.04
[27] = target: QH0692.42 (pseudovirus)
[28] = target: REJO.67
[29] = target: SC422.8
[30] = target: SF162.LS
[31] = target: SS1196.01
[32] = target: T250-4
[33] = target: T253-11
[34] = target: T255-34
[35] = target: T257-31
[36] = target: T266-60
[37] = target: T278-50
[38] = target: T280-5
[39] = target: T33-7
[40] = target: THRO.18
[41] = target: TRJO.58
[42] = target: TRO.11 (pseudovirus)
[43] = target: WITO.33
[44] = target: YU2.DG
[45] = target: 0077_V1.C16
[46] = target: 6785.V5.C14
[47] = target: 96ZM651.02
[48] = target: CAP210.E8
[49] = target: CAP45.G3
[50] = target: CH038.12
[51] = target: CH117.4
[52] = target: CNE31
[53] = target: CNE53
[54] = target: CNE57
[55] = target: CNE7
[56] = target: DU123.06
[57] = target: Env of HIV-1 strain 3873 (pseudovirus) (HIV-1)
[58] = target: Env of HIV-1 strain 6471 (pseudovirus) (HIV-1)
[59] = target: TV1.29
[60] = target: TZBD.02
[61] = target: ZA012.29
[62] = target: ZM176.66
[63] = target: monomeric gp120; test: ELISA or SPR against neutralization
[64] = target: 1FD6 CAP45 scaffold N143D; test: ELISA, supernatant on His grab plates
[65] = target: 1FD6 CAP45 scaffold N147D; test: ELISA, supernatant on His grab plates
[66] = target: 1FD6 CAP45 scaffold N156D; test: ELISA, supernatant on His grab plates
[67] = target: 1FD6 CAP45 scaffold N160Q; test: ELISA, supernatant on His grab plates
[68] = target: 1FD6 CAP45 scaffold N192D; test: ELISA, supernatant on His grab plates
[69] = target: 1FD6-CAP45 V1V2 scaffold; test: ELISA, supernatant on His grab plates

monoclonal antibody PG16
neutralization IC50 [1]: > 50 µg/mL
neutralization IC50 [2]: < 0.023 µg/mL
neutralization IC50 [3]: 0.023 µg/mL
neutralization IC50 [4]: > 50 µg/mL
neutralization IC50 [5]: > 50 µg/mL
neutralization IC50 [6]: 0.062 µg/mL
neutralization IC50 [7]: 0.136 µg/mL
neutralization IC50 [8]: 8 µg/mL
neutralization IC50 [9]: 7.43 µg/mL
neutralization IC50 [10]: 9.17 µg/mL
neutralization IC50 [11]: > 50 µg/mL
neutralization IC50 [12]: > 50 µg/mL
neutralization IC50 [13]: 0.048 µg/mL
neutralization IC50 [14]: > 50 µg/mL
neutralization IC50 [15]: > 50 µg/mL
neutralization IC50 [16]: > 50 µg/mL
neutralization IC50 [17]: > 50 µg/mL
neutralization IC50 [18]: > 50 µg/mL
neutralization IC50 [19]: 1.32 µg/mL
neutralization IC50 [20]: 10.5 µg/mL
neutralization IC50 [21]: 0.001 µg/mL
neutralization IC50 [22]: 0.153 µg/mL
neutralization IC50 [23]: > 50 µg/mL
neutralization IC50 [24]: 0.002 µg/mL
neutralization IC50 [25]: > 50 µg/mL
neutralization IC50 [26]: 19.8 µg/mL
neutralization IC50 [27]: > 50 µg/mL
neutralization IC50 [28]: 0.005 µg/mL
neutralization IC50 [29]: 1.2 µg/mL
neutralization IC50 [30]: > 50 µg/mL
neutralization IC50 [31]: 0.069 µg/mL
neutralization IC50 [32]: < 0.0006 µg/mL
neutralization IC50 [33]: 4.44 µg/mL
neutralization IC50 [34]: 0.005 µg/mL
neutralization IC50 [35]: 0.003 µg/mL
neutralization IC50 [36]: > 50 µg/mL
neutralization IC50 [37]: 1.13 µg/mL
neutralization IC50 [38]: 0.233 µg/mL
neutralization IC50 [39]: < 0.023 µg/mL
neutralization IC50 [40]: 0.975 µg/mL
neutralization IC50 [41]: 0.393 µg/mL
neutralization IC50 [42]: 4.86 µg/mL
neutralization IC50 [43]: < 0.023 µg/mL
neutralization IC50 [44]: 0.041 µg/mL
neutralization IC50 [45]: < 0.023 µg/mL
neutralization IC50 [46]: < 0.023 µg/mL
neutralization IC50 [47]: > 50 µg/mL
neutralization IC50 [48]: < 0.023 µg/mL
neutralization IC50 [49]: < 0.023 µg/mL
neutralization IC50 [50]: 49 µg/mL
neutralization IC50 [51]: 0.005 µg/mL
neutralization IC50 [52]: 2.51 µg/mL
neutralization IC50 [53]: > 50 µg/mL
neutralization IC50 [54]: > 50 µg/mL
neutralization IC50 [55]: 0.393 µg/mL
neutralization IC50 [56]: < 0.023 µg/mL
neutralization IC50 [57]: 12.2 µg/mL
neutralization IC50 [58]: > 50 µg/mL
neutralization IC50 [59]: 0.002 µg/mL
neutralization IC50 [60]: 0.025 µg/mL
neutralization IC50 [61]: 0.631 µg/mL
neutralization IC50 [62]: 0.002 µg/mL
fold weaker affinity for monomeric gp120 than for the viral spike [63]: > 100 fold
EC50 [64]: 3.3 µg/mL
EC50 [65]: 0.7 µg/mL
EC50 [66]: > 50 µg/mL
EC50 [67]: > 50 µg/mL
EC50 [68]: 27 µg/mL
EC50 [69]: 9.1 µg/mL
